This note sets out measurements from PMC4945072, “GNG Motifs Can Replace a GGG Stretch during G-Quadruplex Formation in a Context Dependent Manner”.

The data set deals with Nucleolin 284-710 (UniProt P19338 284-710). Briefly: EMSA; 100 mM KCl; EMSA: oligo folded in binding buffer (composition not given) + 100 mM KCl, 37 C 1 h; nucleolin 100 ng, 4 C 2 h, 8% native gel + 100 mM KCl at 4 C; BG4 37 C 30 min, 6% native gel + 100 mM KCl at RT; CD: 1x PBS + 100 mM KCl. The settings on record: protein: recombinant, tags: His, label: 5'-32P (EMSA). (A gel shift assay detects complexes by their altered migration in electrophoresis.)
Chain of Nucleolin 284-710 (P19338 284-710): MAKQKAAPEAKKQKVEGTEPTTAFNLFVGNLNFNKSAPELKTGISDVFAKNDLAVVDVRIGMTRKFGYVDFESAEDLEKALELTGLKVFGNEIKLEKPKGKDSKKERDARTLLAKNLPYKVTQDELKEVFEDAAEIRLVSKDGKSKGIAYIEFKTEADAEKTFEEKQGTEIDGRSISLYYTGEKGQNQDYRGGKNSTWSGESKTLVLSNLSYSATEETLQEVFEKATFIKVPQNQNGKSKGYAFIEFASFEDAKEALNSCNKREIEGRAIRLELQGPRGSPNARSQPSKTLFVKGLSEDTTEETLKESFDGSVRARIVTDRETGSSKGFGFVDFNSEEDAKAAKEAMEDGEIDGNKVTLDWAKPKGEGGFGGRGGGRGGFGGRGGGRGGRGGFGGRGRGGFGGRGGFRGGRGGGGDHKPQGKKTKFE

GCTCCGCCCCGCGCCCCCGGAAACCTCC (ssDNA) [KD53 (C-rich reverse complement of KD52)]: the binding result (single strand) was “no binding”. In the case of GGAGGTTTCCGGGGGCGCGGGGCGGAGC (structured_DNA) [KD52 (SHOX G-rich strand)], for the setting “intramolecular parallel G4, two G stretches plus GNG motifs”, the binding result was “binds”.
